Results published in the supplement of paper PMC9112550, “Optimization of the antimicrobial peptide Bac7 by deep mutational scanning” (BMC Biology, 2022).

Test system: Escherichia coli TOP10
Test: shrunken log2 fold change of peptide-encoding DNA abundance (4.5 h post-induction vs induction); higher = less antimicrobial activity (less host growth inhibition)
Conditions: time post-induction: 4.5 h; library: site-saturation at positions 5, 18, 19, 20
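Further: peptides expressed intracellularly from a pBAD plasmid library in pooled LB shake-flask culture, induced with 0.3% L-arabinose, DNA abundance read by NGS, three biological replicates, DESeq2 with apeglm shrinkage.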

Going from RRIRDRPPRLPRPRPRPGWQPRP to RRIRNRPPRLPRPRPRPGKPPRP, the “shrunken log2 fold change” value falls from 0.22 to -0.117.

Going from RRIRGRPPRLPRPRPRPYAAPRP to RRIRVRPPRLPRPRPRPVNKPRP, the “shrunken log2 fold change” value falls from 0.859 to -0.186.

Going from RRIRNRPPRLPRPRPRPERQPRP to RRIRPRPPRLPRPRPRPVFRPRP, the “shrunken log2 fold change” value falls from 0.221 to -0.332.

First: RRIRNRPPRLPRPRPRPFELPRP
Second: RRIRRRPPRLPRPRPRPWAQPRP
The “shrunken log2 fold change” value of the first is lower: 0.00621 for the first, 0.882 for the second.

Going from RRIRSRPPRLPRPRPRPQQGPRP to RRIRSRPPRLPRPRPRPYQIPRP, the “shrunken log2 fold change” value falls from 0.162 to -0.106.

Compared with RRIRVRPPRLPRPRPRPTLTPRP, RRIRTRPPRLPRPRPRPPAKPRP is higher in “shrunken log2 fold change” value: -0.0107 for the first, 1.11 for the second.

First: RRIRWRPPRLPRPRPRPSLTPRP
Second: RRIRNRPPRLPRPRPRPCWGPRP
The “shrunken log2 fold change” value of the first is higher: 0.282 for the first, -0.315 for the second.

Compared with RRIRERPPRLPRPRPRPECHPRP, RRIRERPPRLPRPRPRPHTHPRP is lower in “shrunken log2 fold change” value: 0.0213 for the first, -1.01 for the second.

RRIRVRPPRLPRPRPRPAKMPRP and RRIRARPPRLPRPRPRPAVYPRP are within 0.2 log units of each other in “shrunken log2 fold change” value: 0.0161 for the first, -0.079 for the second.

Going from RRIRVRPPRLPRPRPRPDYYPRP to RRIRPRPPRLPRPRPRPHFSPRP, the “shrunken log2 fold change” value rises from -0.679 to -0.108.

RRIRTRPPRLPRPRPRPQRIPRP and RRIRYRPPRLPRPRPRPQWIPRP are within 0.2 log units of each other in “shrunken log2 fold change” value: -0.131 for the first, 0.00701 for the second.

RRIRKRPPRLPRPRPRPHFYPRP and RRIRLRPPRLPRPRPRPPRIPRP are within 0.2 log units of each other in “shrunken log2 fold change” value: -0.0034 for the first, 0.0531 for the second.

Going from RRIRNRPPRLPRPRPRPHIYPRP to RRIRIRPPRLPRPRPRPHNLPRP, the “shrunken log2 fold change” value falls from -0.0215 to -0.334.

Compared with RRIRRRPPRLPRPRPRPEAVPRP, RRIRVRPPRLPRPRPRPCWQPRP is lower in “shrunken log2 fold change” value: 1.53 for the first, -0.0523 for the second.

First: RRIRDRPPRLPRPRPRPNDDPRP
Second: RRIRCRPPRLPRPRPRPHGVPRP
The “shrunken log2 fold change” value of the first is higher: 0.226 for the first, 0.015 for the second.

First: RRIRMRPPRLPRPRPRPCVHPRP
Second: RRIRPRPPRLPRPRPRPNEIPRP
The “shrunken log2 fold change” value of the first is higher: 0.0648 for the first, -0.139 for the second.

Compared with RRIRSRPPRLPRPRPRPPFVPRP, RRIRHRPPRLPRPRPRPVDLPRP is lower in “shrunken log2 fold change” value: 0.148 for the first, -0.314 for the second.

First: RRIRIRPPRLPRPRPRPSLIPRP
Second: RRIRQRPPRLPRPRPRPWKEPRP
The “shrunken log2 fold change” value of the first is lower: -0.604 for the first, -0.103 for the second.

Going from RRIRMRPPRLPRPRPRPVSCPRP to RRIRQRPPRLPRPRPRPWHYPRP, the “shrunken log2 fold change” value falls from 0.141 to -0.484.

Compared with RRIRKRPPRLPRPRPRPAKFPRP, RRIRLRPPRLPRPRPRPFEFPRP is lower in “shrunken log2 fold change” value: 0.602 for the first, -0.119 for the second.

Going from RRIRMRPPRLPRPRPRPWPTPRP to RRIRVRPPRLPRPRPRPMVQPRP, the “shrunken log2 fold change” value falls from 0.675 to 0.159.

RRIRQRPPRLPRPRPRPMFIPRP and RRIRQRPPRLPRPRPRPVLDPRP are within 0.2 log units of each other in “shrunken log2 fold change” value: -0.129 for the first, 0.0663 for the second.

First: RRIRTRPPRLPRPRPRPKSWPRP
Second: RRIRIRPPRLPRPRPRPNRNPRP
The “shrunken log2 fold change” value of the first is higher: 0.245 for the first, -1.1 for the second.

First: RRIRKRPPRLPRPRPRPRANPRP
Second: RRIRIRPPRLPRPRPRPTIHPRP
The “shrunken log2 fold change” value of the first is higher: 0.588 for the first, -0.592 for the second.

RRIRRRPPRLPRPRPRPQGGPRP and RRIRVRPPRLPRPRPRPIQDPRP are within 0.2 log units of each other in “shrunken log2 fold change” value: 0.0141 for the first, -0.134 for the second.

RRIRGRPPRLPRPRPRPWIFPRP and RRIRTRPPRLPRPRPRPRLMPRP are within 0.2 log units of each other in “shrunken log2 fold change” value: 0.224 for the first, 0.119 for the second.

First: RRIRARPPRLPRPRPRPYQIPRP
Second: RRIRCRPPRLPRPRPRPFFNPRP
The “shrunken log2 fold change” value of the first is higher: -0.385 for the first, -0.687 for the second.

Compared with RRIRARPPRLPRPRPRPYASPRP, RRIRFRPPRLPRPRPRPNHSPRP is lower in “shrunken log2 fold change” value: -0.245 for the first, -0.832 for the second.

Compared with RRIRHRPPRLPRPRPRPSLAPRP, RRIRARPPRLPRPRPRPYMGPRP is higher in “shrunken log2 fold change” value: -0.219 for the first, 0.0124 for the second.

RRIRERPPRLPRPRPRPQCLPRP and RRIRVRPPRLPRPRPRPDMAPRP are within 0.2 log units of each other in “shrunken log2 fold change” value: -0.116 for the first, 0.00912 for the second.

RRIRTRPPRLPRPRPRPTGNPRP and RRIRWRPPRLPRPRPRPSKWPRP are within 0.2 log units of each other in “shrunken log2 fold change” value: -0.445 for the first, -0.327 for the second.

Going from RRIRKRPPRLPRPRPRPFCFPRP to RRIRVRPPRLPRPRPRPHGPPRP, the “shrunken log2 fold change” value falls from 1.24 to -0.156.

RRIRRRPPRLPRPRPRPLVHPRP and RRIRSRPPRLPRPRPRPRSEPRP are within 0.2 log units of each other in “shrunken log2 fold change” value: 0.223 for the first, 0.0656 for the second.

Going from RRIRSRPPRLPRPRPRPDEHPRP to RRIRRRPPRLPRPRPRPPYAPRP, the “shrunken log2 fold change” value rises from -0.125 to 0.774.

RRIRTRPPRLPRPRPRPWIRPRP and RRIRHRPPRLPRPRPRPGMAPRP are within 0.2 log units of each other in “shrunken log2 fold change” value: -0.0303 for the first, 0.0763 for the second.

Compared with RRIRERPPRLPRPRPRPYMCPRP, RRIRIRPPRLPRPRPRPACQPRP is higher in “shrunken log2 fold change” value: -0.216 for the first, 0.0224 for the second.

Going from RRIRYRPPRLPRPRPRPFNFPRP to RRIRMRPPRLPRPRPRPVDHPRP, the “shrunken log2 fold change” value rises from -0.771 to -0.0711.

With RRIRKRPPRLPRPRPRPIRLPRP the “shrunken log2 fold change” value was -0.0783.
